Test results published in the supplement of paper PMC12764529.
± gives the half width of the 95% confidence interval.

Columns and labels:
[1] = folding stability dG unfold from chymotrypsin proteolysis; higher = more stable
Procedure, shortened: (§1)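 Digests were run with trypsin and chymotrypsin at 11 concentrations in threefold dilutions, plus a no-protease condition, on designed mini-proteins in a PA-tagged cDNA display construct. The mini-proteins were under 80 residues, had no cysteine, and were kept only when AlphaFold2 dimer inter-PAE was above 15. After sequencing, Bayesian fitting of the counts gave K50, from which unfolding free energy was derived against a sequence-predicted unfolded-state K50 and a shared folded-state K50, per protease or combined.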

[2] = folding stability dG unfold from trypsin proteolysis; higher = more stable
Procedure, shortened: as §1

[3] = folding stability dG unfold (combined trypsin and chymotrypsin); higher = more stable
Procedure, shortened: as §1

| Sequence | folding stability dG unfold [1] [kcal/mol] | folding stability dG unfold [2] [kcal/mol] | folding stability dG unfold [3] [kcal/mol] |
| --- | --- | --- | --- |
| SAGGSAGGSAGEFEPVPVLTLPGLDDREVRVVLFKDPPLVLLEVEGAPYVLPAEELLRLASAGGSAGGSAGG [r11_370_TrMRF] | 1.26 ± 0.13 | -0.19 ± 0.09 | 0.856 ± 0.12 |
| SAGGNLFIRIKIEHDGGPITHWFPIKDAEQAKDNIKEFFDQQGLPVKIKEIEVFPEEGFIPVEWRVPPSAGG [r13_567_TrROS] | 0.485 ± 0.12 | 0.101 ± 0.12 | 0.348 ± 0.11 |
| SAGGSAGGKIIINGKEIEPGETITLPNGLKLEVVDGKIKLVVRDEETGEEKEITLSAEELKKLLSAGGSAGG [r6_940_TrROS_Hall] | 3.26 ± 0.086 | 2.65 ± 0.12 | 3.09 ± 0.061 |
| SAGGSMVKVEVHYDPERDLVLVTVEAPDDPELVDEFVERMKKLGAKRVEVFRFPEDGKVRILVEIGSAGGSA [r2_358_TrMRF] | 4.68 ± 0.081 | 3.08 ± 0.11 | 4.36 ± 0.1 |
| SAGGSAGGSELPEGVEVETEPIAEIEITDEDGRKYKISIEAVKIRGPDGKEFLVISVSIEELPSAGGSAGGS [r12_544_TrROS_Hall] | 4.16 ± 0.34 | 3.25 ± 0.56 | 3.81 ± 0.62 |
| SMKKTYTFPVTLVPKDGKASLTVNWYAPDGTSLGTQTKSASAEGNTVTATVTVTVDAPPGAKIPSITVNASA [r9_292_JUSTAS] | 0.473 ± 0.052 | 0.091 ± 0.041 | 0.353 ± 0.038 |
| SAGGSAGGSVRIPGGQPNTKVTVTVRLPDGTPVEVEATVNPSGEITLDLPDVSPDLIESIELSSAGGSAGGS [r12_477_JUSTAS] | 0.478 ± 0.027 | 1.14 ± 0.019 | 0.82 ± 0.038 |
| SAGGSSPASVRTSQTTVTDPATGRTRSVTVTTLPDGTTVSTFDSPGGSLVTTTTTPDGTTTTVTADSAGGSA [r2_109_JUSTAS] | 1.38 ± 0.022 | -0.0855 ± 0.13 | 1.05 ± 0.066 |
| SAGGSKELKPGDIITFPKSVSEEEIKEKVKELMEKYGIKGIISIEKKSPNSYIVKIEYPDGNPLAISAGGSA [r2_168_JUSTAS] | 1.34 ± 0.081 | 2.1 ± 0.074 | 1.72 ± 0.15 |
| SAGGSAGGSAGRRVTINHNPENGFFRVKVYPPKGKSQVYPIPMENLEEIKKNLPPGVEIVSAGGSAGGSAGG [r11_569_TrROS] | -0.511 ± 0.24 | 0.206 ± 0.12 | -0.102 ± 0.12 |
| SAGGGAAEEAARALIDEAKAALGLSEISEVVLTREGDGVTMTVRFPGKGLVITIDLAAGVVTAVEDVSAGGS [r16_171_JUSTAS] | 2.018 ± 0.0088 | 2.18 ± 0.034 | 2.11 ± 0.035 |
| SAGGSAMKIEEIEKVELKKNENGELTAKIIIKDKKTNKYIEIEITVKPGMTLEEIKKLAEELLKKLSAGGSA [r15_181_TrROS_Hall] | 1.96 ± 0.075 | 3.42 ± 0.13 | 2.73 ± 0.14 |
| SAGGSAGGSAGSSMTSTVTEVSTLSNGGTVVTTTTTSYYPSTGTTTTSTTTTTFTDGKAVSAGGSAGGSAGG [r11_337_JUSTAS] | 0.932 ± 0.027 | 1.08 ± 0.057 | 1.05 ± 0.03 |
| SAGGSAGGSMTITVTKVDFPPGLYEGLTIEELRKLLGDENLPIKETPVTVTVTPEKLAALLLSSAGGSAGGS [r12_178_JUSTAS] | 0.778 ± 0.08 | 1.69 ± 0.036 | 1.36 ± 0.096 |
| SAGKSIKILITTEKEEEAKKLAEEIKKELPKLGYKVEVYIMPKEEFEKFLKEFVVPEPDGKLVKVDLSSAGG [r19_187_TrMRF] | 2.09 ± 0.1 | 0.482 ± 0.056 | 1.48 ± 0.19 |
| SAGSLKPSDLVLLRSRPVRVGGKPVVLVDLVVFHPDGSASRAVLTLPSGVGPPVVGVVPVPALVRLIASSAG [r5_831_TrMRF] | 2.14 ± 0.084 | 1.53 ± 0.047 | 1.95 ± 0.12 |
| SAMELRVESELFPDGRRRLVVLDPGDGAPVVTFIDLEPVDGGYRASITQIGPDPAVAERVARELGIPPESAG [r14_545_TrMRF] | 1.17 ± 0.047 | -0.191 ± 0.21 | 0.786 ± 0.082 |
| SKLKIEEIEINPNMPYTISVKLPDGFYISIQYDPGKPDQMKMNIFPPDGKKREHTIPANEPIRINFEIEPSA [r9_875_TrROS] | 2.55 ± 0.04 | 1.35 ± 0.034 | 2.19 ± 0.12 |
| SAGGSAGGSAGGGSMVTVPVTTESTTTVPPGAPAVEAAPVDPATATVSTTTSSTSLVASSAGGSAGGSAGGS [r10_82_JUSTAS] | 0.534 ± 0.029 | 1.22 ± 0.081 | 0.862 ± 0.092 |
| SAGSSTTETFTHPDGSVVTVTEEELPDGSYRVTSVSYEATPDGTVSALLRKPDGTIITVDSLEELFALESAG [r5_618_JUSTAS] | 1.51 ± 0.076 | 0.965 ± 0.025 | 1.34 ± 0.083 |
| SAGGSAGGSMEVNLKVTVTYPDGTVVELEIPKVSTEDGKSVEDVAKEIEALPDVKEVEVEIVESAGGSAGGS [r12_199_JUSTAS] | 2.03 ± 0.1 | 0.847 ± 0.13 | 1.55 ± 0.27 |

| Sequence | folding stability dG unfold [1] [kcal/mol] | folding stability dG unfold [2] [kcal/mol] | folding stability dG unfold [3] [kcal/mol] |
| --- | --- | --- | --- |
| SAGGEKATVTVVYDPEKGYVVVPVDIPFLDENGKPKKLKLVFVLPASPEAEEAVKELAKELGLESVESAGGS [r8_381_TrMRF] | 2.38 ± 0.059 | 1.37 ± 0.1 | 2.11 ± 0.2 |
| SAGGSAGGSAGGMPADEKVTTSPEIVTLPNGTRVVVTKSTSPDPSVSSTSVTVLPPNVPPSAGGSAGGSAGG [r11_338_JUSTAS] | 1.38 ± 0.027 | 0.393 ± 0.029 | 1.05 ± 0.066 |
| SSSAEIRAYRFPDFWLVEIDLRDGDKLVGTAVFPNDGSVSLEEVAEAFRAAHPDFDVEISAIEPVPPPPPSA [r9_364_TrMRF] | 2.08 ± 0.063 | 1.71 ± 0.064 | 2.01 ± 0.12 |
| SMKLIGYDPVTGKPVTLTFDPETKTVTVTHPNGEKITAPAESITFDPETGTVTITLPTKTVTFYVPPEANSA [r9_325_TrMRF] | 4.93 ± 0.12 | 3.89 ± 0.27 | 4.82 ± 0.2 |
| SAGSPLYEVKSEEVLPGPGGEPMRVTVVELPGGEILTFVESPDGLLEIRYIPAETGKFEKTEKVPRDLLSAG [r5_750_JUSTAS] | 0.802 ± 0.087 | 0.445 ± 0.06 | 0.618 ± 0.15 |
| SAGGSAIEIEPAPDNVLVVTADLPPNVPAEKLVEALKDLIPDVEFETSSSADGRHVIVLRLPPDVFSAGGSA [r15_1047_TrMRF] | 0.961 ± 0.06 | 1.05 ± 0.044 | 1.05 ± 0.07 |
| SAGGSAGGSAGGSTITLRIEGLSKEEIEELARKLGAKVVSFDEKNKTVTIELPPGAKLLSAGGSAGGSAGGS [r4_3_TrROS_Hall] | 2.19 ± 0.044 | 1.88 ± 0.054 | 2.09 ± 0.084 |
| SAGGSAGGSAGGMKTIVFTTLSPEEAQALADELKAKGVDVEVTYEPVPVTPRPLPLNRLSAGGSAGGSAGGS [r10_361_JUSTAS] | 3.06 ± 0.063 | 2.04 ± 0.059 | 2.57 ± 0.097 |
| SAGGSEEVEEEPPVVVTVRLTIELTLADGSKVRVEVELVRTADGRLLLKIRVVNEDTGEVYEFTFPSAGGSA [r2_484_TrROS_Hall] | 4.86 ± 0.23 | 3.31 ± 0.24 | 4.6 ± 0.19 |
| SAGGSAGGSFPLDEIRKFAKKLGNPFIEIEPVKPHVYRIKIYNKKNGKKKEFPIYLDEDGKIMSAGGSAGGS [r12_170_TrROS] | 1.27 ± 0.15 | 0.992 ± 0.053 | 1.16 ± 0.13 |
| SALPPGTTVTYTFYDPATGALVTVTVTTLPDGTVRVTLTVYDPSTGETTTVTFTVDGATLDELLDFIRAGSA [r9_618_TrMRF] | 5.28 ± 0.18 | 3.77 ± 0.3 | 5.37 ± 0.32 |
| SAGGSAGGSAMKVITLPENADINKVIEAVEAGSPILVKIVDPKSSKTTDLPLPSKEAVEKLSAGGSAGGSAG [r3_362_JUSTAS] | -0.394 ± 0.18 | -0.468 ± 0.17 | -0.33 ± 0.15 |
| SAGGSAGGSAGGKIKDAEIVSVEYDPETGVLYMEVKLEDGSTYRIRFDLKTNKLTIEPVSAGGSAGGSAGGS [r10_674_TrROS_Hall] | 4.91 ± 0.2 | 3.29 ± 0.36 | 4.56 ± 0.3 |
| SAGGSAGGSSSYSVPDSSSVTLETTVTITFPSSSVGGSPASSGPVAFTVPVKVTVSVTNPGVASAGGSAGGS [r12_668_JUSTAS] | 0.532 ± 0.18 | 1.18 ± 0.029 | 1.02 ± 0.14 |
| SAGGSAGGSAGSPVSNPEGGTITNTETLPDGKTIVNTQTIDPSKPKTTTSTTVLDPNGNAVSAGGSAGGSAG [r3_433_JUSTAS] | 1.55 ± 0.045 | 0.894 ± 0.053 | 1.27 ± 0.13 |
| SSISIPGLTEEKAAELAKRLRELFPGAEVKTTTFPEKKVVVVDVTLPVVDADGKLVGTVKLRLVLVVEDDSA [r9_378_TrMRF] | 4.55 ± 0.21 | 4.6 ± 0.19 | 4.84 ± 0.34 |
| SAGGSAGGSAGGSPLVIKVDGPAEKLIEEIKKLFPNAKVLSIETHPDGGVTLVVEKIDESAGGSAGGSAGGS [r4_95_TrMRF] | 2.35 ± 0.069 | 1.38 ± 0.07 | 2.03 ± 0.15 |
| SAGMKIVEIEKKEDGTVKIKIEVNGEEKEIEVKVGETITLPDGSEIEVLEDGTIKVRPLPEPEVEEEESAGG [r19_17_TrROS_Hall] | 2 ± 0.17 | 3.24 ± 0.39 | 2.64 ± 0.26 |
| MVITPEEVAEMLGVSPEELAALPLEELAQRILEVLPAGVATSVTVERDPARGTTTITVTLSDGKNIDVTLES [r1_340_JUSTAS] | 4.61 ± 0.47 | 4.41 ± 0.33 | > 6 |
| SAGGSAGGSAEEPEFEIVSVEYDPETNVLTVVVRDKKTGRLYVFRFYPDGTVEVREVSLEDLSAGGSAGGSA [r18_521_TrROS_Hall] | 5.03 ± 0.057 | 3.37 ± 0.064 | 4.74 ± 0.076 |
| SAGGSAKPVIVKIHFPNMKPEKILELAKEFGAVPLKMDPNKGVAIVLATEEKVEEIAAKGNFKIEASAGGSA [r15_731_TrMRF] | 0.205 ± 0.39 | 0.736 ± 0.043 | 0.515 ± 0.26 |
